# Where “and” joins values, the source holds several entries; their conditions need not be identical. Equal entries are not always repeated.
# Tests used:
# human fibrinogen = human fibrinogen (UniProt P02671)
substance,measurement,setting,value
antithrombosis enzyme purified from the snake venom of Southern-Anhui Agkistrodon acutus,"proteolytic activity (azocasein hydrolysis, absorbance at 390 nm)",azocasein,No proteolytic activity was detected in this assay
same,fibrinolytic activity,fibrin,1 fibrinolytic activity unit per mg protein
same,fibrinolytic activity (fibrin-plate-clearance assay),fibrin; scale: fibrinolytic activity units per mg of enzyme,1 and 3
same,fibrinogen cleavage,human fibrinogen,One fibrinogen cleavage site was found to be Met 235-Pro236 of the α chain of human fibrinogen

# Reference: patent US7223730
